Molecular target: T1, NRF1 (GST-NRF1, unphosphorylated) (Homo sapiens, UniProt Q16656 1-503)
T1 sequence: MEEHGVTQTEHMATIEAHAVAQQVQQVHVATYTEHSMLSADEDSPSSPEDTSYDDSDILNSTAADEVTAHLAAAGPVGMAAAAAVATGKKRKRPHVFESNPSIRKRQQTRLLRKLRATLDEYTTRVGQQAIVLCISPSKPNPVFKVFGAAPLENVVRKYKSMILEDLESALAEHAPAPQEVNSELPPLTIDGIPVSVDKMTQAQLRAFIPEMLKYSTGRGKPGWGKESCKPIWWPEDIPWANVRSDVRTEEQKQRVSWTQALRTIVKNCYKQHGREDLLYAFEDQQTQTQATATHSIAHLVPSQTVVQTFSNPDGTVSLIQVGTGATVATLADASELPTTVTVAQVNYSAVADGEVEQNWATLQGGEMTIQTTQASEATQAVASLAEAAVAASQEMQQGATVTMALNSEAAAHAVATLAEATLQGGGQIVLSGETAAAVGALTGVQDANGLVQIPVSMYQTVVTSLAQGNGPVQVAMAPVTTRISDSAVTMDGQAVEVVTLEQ
Assay: EMSA; 1-3 ug protein, poly[d(I-C)]; concentration-dependent; 5 mM Hepes pH 8.0, 20 nM DTT (so in the source), 30 mM NaCl, 10 ng DIG probe, 1 ug poly[d(I-C)], 0.5-2 ug GST-NRF1 (Methods; legend 1-3 ug), 5 min RT; 6% native TBE-PAGE, 0.5x TBE pH 8.3, 4 C
Settings: protein: recombinant; tags: N-terminal GST (pGEX6P1); chain copies: 2; label: DIG (DIG 3'-end labeling kit named); blunt

B1: Ehmt1 promoter probe (PKO 5019/PKO 5020) (dsDNA)
DNA 1: GCCACCTGGCCTCGCCTCCAGACGCAGGCGCCGCACGGGTGGGTC
DNA 2: GACCCACCCGTGCGGCGCCTGCGTCTGGAGGCGAGGCCAGGTGGC
B1: binds.

From paper PMC6719441, “CDK2 regulates the NRF1/Ehmt1 axis during meiotic prophase I”
